# T1: DcR3 (UniProt O95407 30-300, limits assumed)
# T1 construct: the construct is not described; also called decoy receptor DcR3; TNFRSF6B
# T1 sequence (looked up): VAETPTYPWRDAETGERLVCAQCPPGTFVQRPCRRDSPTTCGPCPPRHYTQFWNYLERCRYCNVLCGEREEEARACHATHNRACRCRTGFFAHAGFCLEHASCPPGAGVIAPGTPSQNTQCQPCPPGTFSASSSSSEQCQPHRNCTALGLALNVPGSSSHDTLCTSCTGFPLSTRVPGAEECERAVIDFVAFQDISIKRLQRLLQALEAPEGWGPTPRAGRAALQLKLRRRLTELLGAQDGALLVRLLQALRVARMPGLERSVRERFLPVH
# T2: Recombinant DR3-Fc (R&D Systems, cat. #943-D3) (UniProt Q93038 25-199, limits assumed)
# T2 construct: dimeric MW~92 kDa; also called DR3 receptor; Fc-DR3; not shown: Fc part of the bought fusion
# T2 sequence (looked up): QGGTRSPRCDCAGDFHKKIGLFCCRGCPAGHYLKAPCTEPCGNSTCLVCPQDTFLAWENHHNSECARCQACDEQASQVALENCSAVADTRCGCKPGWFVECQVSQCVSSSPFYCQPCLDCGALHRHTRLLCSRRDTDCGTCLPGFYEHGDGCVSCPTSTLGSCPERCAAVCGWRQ
# Tests used:
# [1] = molecular target: T1, DcR3; test: ELISA, DcR3
# [2] = molecular target: T2, Recombinant DR3-Fc (R&D Systems, cat. …); test: ELISA, DR3-Fc immobilized
# Procedure, shortened: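 DR3-Fc (10 μg/mL) was coated overnight at 4 °C, blocked with casein, then incubated overnight at 4 °C with TL1A variants from 25 μg/mL in 3-fold dilutions. Bound TL1A was detected with biotinylated rabbit anti-human TL1A and streptavidin-HRP, read by chemiluminescence; triplicates, errors as standard error.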
Binder,EC50 [1] [nM],Rel EC50 [1],EC50 [2] [nM],Rel EC50 [2]
"TL1W123 (His-TEV-TL1A N207S) (ligand, also called TL1W123 (N207S)) HHHHHHENLYFQGLKGQEFAPSHQQVYAPLRADGDKPRAHLTVVRQTPTQHFKNQFPALHWEHELGLAFTKNRMNYTNKFLLIPESGDYFIYSQVTFRGMTSECSEIRQAGRPNKPDSITVVITKVTDSYPEPTQLLMGTKSVCEVGSSWFQPIYLGAMFSLQEGDKLMVNVSDISLVDYTKEDKTFFGAFLL",8.6,1.9 ratio (head: nM),26.8,1 ratio (head: nM)
"TL1W127 (His-TEV-TL1A Y238A) (ligand, also called TL1W127 (Y238A)) HHHHHHENLYFQGLKGQEFAPSHQQVYAPLRADGDKPRAHLTVVRQTPTQHFKNQFPALHWEHELGLAFTKNRMNYTNKFLLIPESGDYFIYSQVTFRGMTSECSEIRQAGRPNKPDSITVVITKVTDSYPEPTQLLMGTKSVCEVGSNWFQPIYLGAMFSLQEGDKLMVNVSDISLVDATKEDKTFFGAFLL",8.9,1.9 ratio (head: nM),4620,176 ratio (head: nM)
"TL1W124 (His-TEV-TL1A N207K) (ligand, also called TL1W124 (N207K)) HHHHHHENLYFQGLKGQEFAPSHQQVYAPLRADGDKPRAHLTVVRQTPTQHFKNQFPALHWEHELGLAFTKNRMNYTNKFLLIPESGDYFIYSQVTFRGMTSECSEIRQAGRPNKPDSITVVITKVTDSYPEPTQLLMGTKSVCEVGSKWFQPIYLGAMFSLQEGDKLMVNVSDISLVDYTKEDKTFFGAFLL",15.4,3.4 ratio (head: nM),110,4.2 ratio (head: nM)
"TL1W125 (His-TEV-TL1A N207E) (ligand, also called TL1W125 (N207E)) HHHHHHENLYFQGLKGQEFAPSHQQVYAPLRADGDKPRAHLTVVRQTPTQHFKNQFPALHWEHELGLAFTKNRMNYTNKFLLIPESGDYFIYSQVTFRGMTSECSEIRQAGRPNKPDSITVVITKVTDSYPEPTQLLMGTKSVCEVGSEWFQPIYLGAMFSLQEGDKLMVNVSDISLVDYTKEDKTFFGAFLL",9.8,2.1 ratio (head: nM),506,19.3 ratio (head: nM)
"TL1W126 (His-TEV-TL1A F209W) (ligand, also called TL1W126 (F209W)) HHHHHHENLYFQGLKGQEFAPSHQQVYAPLRADGDKPRAHLTVVRQTPTQHFKNQFPALHWEHELGLAFTKNRMNYTNKFLLIPESGDYFIYSQVTFRGMTSECSEIRQAGRPNKPDSITVVITKVTDSYPEPTQLLMGTKSVCEVGSNWWQPIYLGAMFSLQEGDKLMVNVSDISLVDYTKEDKTFFGAFLL",13.7,3 ratio (head: nM),56.8,2.2 ratio (head: nM)

# Now from value to binder:
EC50 [1] [nM],Rel EC50 [1],EC50 [2] [nM],Rel EC50 [2],Binder
9,2 ratio (head: nM),446,17 ratio (head: nM),"TL1W129 (His-TEV-TL1A Y238K) (ligand, also called TL1W129 (Y238K)) HHHHHHENLYFQGLKGQEFAPSHQQVYAPLRADGDKPRAHLTVVRQTPTQHFKNQFPALHWEHELGLAFTKNRMNYTNKFLLIPESGDYFIYSQVTFRGMTSECSEIRQAGRPNKPDSITVVITKVTDSYPEPTQLLMGTKSVCEVGSNWFQPIYLGAMFSLQEGDKLMVNVSDISLVDKTKEDKTFFGAFLL"
6.6,1.4 ratio (head: nM),300,11.5 ratio (head: nM),"TL1W131 (His-TEV-TL1A Y238E) (ligand, also called TL1W131 (Y238E)) HHHHHHENLYFQGLKGQEFAPSHQQVYAPLRADGDKPRAHLTVVRQTPTQHFKNQFPALHWEHELGLAFTKNRMNYTNKFLLIPESGDYFIYSQVTFRGMTSECSEIRQAGRPNKPDSITVVITKVTDSYPEPTQLLMGTKSVCEVGSNWFQPIYLGAMFSLQEGDKLMVNVSDISLVDETKEDKTFFGAFLL"
27.2,5.9 ratio (head: nM),144,5.5 ratio (head: nM),"TL1W132 (His-TEV-TL1A T239A) (ligand, also called TL1W132 (T239A)) HHHHHHENLYFQGLKGQEFAPSHQQVYAPLRADGDKPRAHLTVVRQTPTQHFKNQFPALHWEHELGLAFTKNRMNYTNKFLLIPESGDYFIYSQVTFRGMTSECSEIRQAGRPNKPDSITVVITKVTDSYPEPTQLLMGTKSVCEVGSNWFQPIYLGAMFSLQEGDKLMVNVSDISLVDYAKEDKTFFGAFLL"

# — US20220056104A1 (Janssen / Centocor, published 2022)
